Assay results reported in IntAct's records for PubMed 10835346.

B1: Dolichol phosphate-mannose biosynthesis regulatory protein (Rattus norvegicus (Rat)), Q9Z325 (parent)
chain: MATGTDQAVGFGLVAVSLIIFTYYTTWVILLPFIDSQHVIHKYFLPRAYAVLLPLAAGLLLLLFVGLFITYVLLKSQKVTKKAQ
partner: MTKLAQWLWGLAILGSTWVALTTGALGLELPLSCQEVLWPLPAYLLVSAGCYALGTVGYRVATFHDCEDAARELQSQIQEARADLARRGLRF

Variants of: B1
Conditions: with dpm3_human DPM3, Q9P2X0
In the case of MATGTDQAVGFGLVAVSLIILTSYTTWVILLPFIDSQHVIHKYFLPRAYAVLLPLAAGLLLLLFVGLFITYVLLKSQKVTKKAQ [F21L;Y23S], the “effect of a mutation on the interaction” value is reported as “decreasing interaction”.
